T1: Tetrahymena α-tubulin with non-acetylated K40, from the MEC17-KO strain (as axonemes or as purified tubulin), P41351
T1 chain: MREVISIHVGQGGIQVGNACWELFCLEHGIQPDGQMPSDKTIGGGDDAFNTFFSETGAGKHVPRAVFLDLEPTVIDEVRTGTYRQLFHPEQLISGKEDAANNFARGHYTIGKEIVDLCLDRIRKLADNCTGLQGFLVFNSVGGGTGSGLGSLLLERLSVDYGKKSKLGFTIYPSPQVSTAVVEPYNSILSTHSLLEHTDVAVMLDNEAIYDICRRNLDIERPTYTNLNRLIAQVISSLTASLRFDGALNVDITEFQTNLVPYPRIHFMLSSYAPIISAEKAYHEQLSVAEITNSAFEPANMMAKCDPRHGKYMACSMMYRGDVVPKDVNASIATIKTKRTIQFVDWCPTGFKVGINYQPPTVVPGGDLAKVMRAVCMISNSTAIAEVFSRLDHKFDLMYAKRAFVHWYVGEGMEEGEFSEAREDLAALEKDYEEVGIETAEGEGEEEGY

T2: Tetrahymena K40R α-tubulin (axonemes from a K40R Tetrahymena mutant), P41351
T2 chain: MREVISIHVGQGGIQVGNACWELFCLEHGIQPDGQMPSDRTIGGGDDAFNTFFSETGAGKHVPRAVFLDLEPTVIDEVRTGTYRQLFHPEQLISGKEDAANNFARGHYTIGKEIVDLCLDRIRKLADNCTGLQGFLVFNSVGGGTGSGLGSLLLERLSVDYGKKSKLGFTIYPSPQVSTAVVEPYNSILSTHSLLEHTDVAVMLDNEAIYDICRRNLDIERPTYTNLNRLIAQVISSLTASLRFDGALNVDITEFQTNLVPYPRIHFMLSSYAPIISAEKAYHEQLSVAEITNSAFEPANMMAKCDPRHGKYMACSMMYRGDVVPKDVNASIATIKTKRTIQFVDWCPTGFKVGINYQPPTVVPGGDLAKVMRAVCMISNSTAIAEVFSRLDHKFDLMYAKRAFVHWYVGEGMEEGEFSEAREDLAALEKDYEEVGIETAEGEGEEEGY

B1: GFP-Mec17p (Tetrahymena MEC-17 tagged with GFP, crude enriched soluble fraction from transgenic Tetrahymena) (protein)
chain: MFKNQLLSLSLRIQKLRLCRQGNQLKVLQKSINQLLFKTQSIDQILQYLQQKKKTHQSILENQNQHIHSIGLVSQLTNQKINKQKNQKAMEFNFIINKLVQLDQQGLGVYIPRASRSKVSSQQEQQLGQVLNTMGERSAIAQGLKQVITNYDKVQGTDQRVYIVAEGRTCQGFLKVGQKNLFYRDMMGNIKEIKPLCVLDFYVHESCQRQGYGKLLFEYMIQCEQTSPEKLAYDRPSPKLIAFLKKHYNLVKYIAQNNNFVVFDQYFRSDASSQNKQNQNTRSYSQPYSDYSSQIPTNYPQQQQQQSNSKSYPYKQENNIDLMQHSSSRNNKEFLNAGRAILSKEEIYKKDNLSQQNIENTLNNINNSQYSTKSQQQQQYQKDYQLDKYENNWGADKNIKKPPFPGQDRQLDKIQQKIQQTERELDVVNQQIIKQRQNLSQDPLTQNHRAQNVYNTNQFGTSPWAQTGFNYYSTSSSNYGNHYTYYKK
B2: GST-MmMEC-17 (recombinant murine MEC-17 expressed in E. coli as a GST fusion) (protein)
chain: MEFPFDVDALFPERITVLDQHLRPPARRPGTTTPARVDLQQQIMTIVDELGKASAKAQHLPAPITSALRMQSNRHVIYILKDTSARPAGKGAIIGFLKVGYKKLFVLDDREAHNEVEPLCILDFYIHESVQRHGHGRELFQHMLQKERVEPHQLAIDRPSPKLLKFLNKHYNLETTVPQVNNFVIFEGFFAHQHRPPTSSLRATRHSRAAVADPIPAAPARKLPPKRAEGDIKPYSSSDREFLKVAVEPPWPLNRAPRRATPPAHPPPRSSSLGNSPDRGPLRPFVPEQELLRSLRLCPPHPTARLLLATDPGGSPAQRRRTRGTPWGLVAQSCHYSRHGGFNTSFLGTGNQERKQGEQEAEDRSASEDRVLLLDGSGEEPTQTGAPRAQAPPPQSWTVGGDIMNARVIRNLQERRSTRPW

Experiments:
[1] = target: T1, Tetrahymena α-tubulin with …
[2] = target: T2, Tetrahymena K40R α-tubulin (axonemes …)

Protein	in vitro tubulin acetylation (K40 αTAT) assay on MEC17-KO axonemes, western blot with 6-11 B-1 mAb [1]	in vitro acetylation of R40 (K40R) axonemes, western blot with pan acetyl-K antibodies [2]	in vitro acetylation of K40 axonemes, western blot with pan acetyl-K antibodies [1]	in vitro tubulin acetylation (αTAT) assay on MEC17-KO axonemes with acetyl-CoA, western blot with 6-11 B-1 mAb [1]
B1	A crude GFP-Mec17p-enriched fraction (obtained from transgenic Tetrahymena) had K40 αTAT activity in vitro that was dependent on the presence of acetyl-CoA			
B2		failed to acetylate R40 axonemes	GST-MmMEC-17 modified K40 axonemes	GST-MmMEC-17, but not GST, mediated a robust αTAT activity in vitro
